Laboratory results reported in article PMC12990707, “Multiple novel hepatocellular carcinoma signature genes are commonly controlled by the master pluripotency factor OCT4”.

B1: TK1 probe 3 (dsDNA)
DNA 1: CGGGCTAACACCTTCACACTTTATGCAGAAAGTAACAAGGAACCATTCTGAG
DNA 2: CTCAGAATGGTTCCTTGTTACTTTCTGCATAAAGTGTGAAGGTGTTAGCCCG
B2: TK1 probe 2 (dsDNA)
DNA 1: CCTGGCAGGGTCTACGGATATTATTAGCATAGTCAGGACTTCAATTTTCTTT
DNA 2: AAAGAAAATTGAAGTCCTGACTATGCTAATAATATCCGTAGACCCTGCCAGG
B3: TK1 probe 1 (dsDNA)
DNA 1: GGGACCTGGCACGCACTAGGCGCTCTGCATGCCCACAGGAGTGCTCTAGACG
DNA 2: CGTCTAGAGCACTCCTGTGGGCATGCAGAGCGCCTAGTGCGTGCCAGGTCCC

Target: OCT4 (human, UniProt Q01860 1-360)
Sequence (Q01860 whole entry): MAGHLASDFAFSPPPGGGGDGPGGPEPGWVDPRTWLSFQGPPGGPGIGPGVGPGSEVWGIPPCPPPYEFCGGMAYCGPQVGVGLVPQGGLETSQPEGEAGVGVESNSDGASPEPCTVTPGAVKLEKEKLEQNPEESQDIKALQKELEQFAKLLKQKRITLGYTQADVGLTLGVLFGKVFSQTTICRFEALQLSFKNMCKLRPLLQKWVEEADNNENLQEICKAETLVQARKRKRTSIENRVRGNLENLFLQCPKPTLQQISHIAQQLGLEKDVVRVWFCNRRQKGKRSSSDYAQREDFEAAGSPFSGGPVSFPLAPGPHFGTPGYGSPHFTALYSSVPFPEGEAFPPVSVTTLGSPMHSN
Assay: EMSA; LightShift chemiluminescent EMSA kit (Thermo 20148) per manufacturer; buffer, salt, pH and temperature not stated
Conditions: protein: recombinant; label: 5' biotin on both strands; blunt

Binding result, binds:
B1
B2
B3
